Laboratory results as given in IntAct's records for PubMed 20111005.

B1: CCAAT/enhancer-binding protein beta (Gallus gallus (Chicken)), Q05826 (parent)
chain: MQRLVAWDAACLPIQPPAFKSMEVANFYYEADCLAALNKLHPRAAGGRSMTELTVGDHERAIDFSPYLDPLAASQQPAQPPPPAAAAGGNFEPACSSGGQDFLSDLFAEDYKGSGGGKKPDYTYISLTRHGHPCGSQSHKPGVLPGCFPPQIVETKVEPVFETLDSCKGPRKEEGGAGPGPGGMSSPYGSTVRSYLGYQSVPSGSSGNLSTSSSSSPPGTPNPSESSKSAAGAGGYSGPPAGKNKPKKCVDKHSDEYKLRRERNNIAVRKSRDKAKMRNLETQHKVLELTAENERLQKKVEQLSRELSTLRNLFKQLPEPLLASSPRC

Variants of: B1
Settings: with smca2_human SMARCA2, P51531
Sequence of smca2_human SMARCA2, P51531 (P51531 whole entry): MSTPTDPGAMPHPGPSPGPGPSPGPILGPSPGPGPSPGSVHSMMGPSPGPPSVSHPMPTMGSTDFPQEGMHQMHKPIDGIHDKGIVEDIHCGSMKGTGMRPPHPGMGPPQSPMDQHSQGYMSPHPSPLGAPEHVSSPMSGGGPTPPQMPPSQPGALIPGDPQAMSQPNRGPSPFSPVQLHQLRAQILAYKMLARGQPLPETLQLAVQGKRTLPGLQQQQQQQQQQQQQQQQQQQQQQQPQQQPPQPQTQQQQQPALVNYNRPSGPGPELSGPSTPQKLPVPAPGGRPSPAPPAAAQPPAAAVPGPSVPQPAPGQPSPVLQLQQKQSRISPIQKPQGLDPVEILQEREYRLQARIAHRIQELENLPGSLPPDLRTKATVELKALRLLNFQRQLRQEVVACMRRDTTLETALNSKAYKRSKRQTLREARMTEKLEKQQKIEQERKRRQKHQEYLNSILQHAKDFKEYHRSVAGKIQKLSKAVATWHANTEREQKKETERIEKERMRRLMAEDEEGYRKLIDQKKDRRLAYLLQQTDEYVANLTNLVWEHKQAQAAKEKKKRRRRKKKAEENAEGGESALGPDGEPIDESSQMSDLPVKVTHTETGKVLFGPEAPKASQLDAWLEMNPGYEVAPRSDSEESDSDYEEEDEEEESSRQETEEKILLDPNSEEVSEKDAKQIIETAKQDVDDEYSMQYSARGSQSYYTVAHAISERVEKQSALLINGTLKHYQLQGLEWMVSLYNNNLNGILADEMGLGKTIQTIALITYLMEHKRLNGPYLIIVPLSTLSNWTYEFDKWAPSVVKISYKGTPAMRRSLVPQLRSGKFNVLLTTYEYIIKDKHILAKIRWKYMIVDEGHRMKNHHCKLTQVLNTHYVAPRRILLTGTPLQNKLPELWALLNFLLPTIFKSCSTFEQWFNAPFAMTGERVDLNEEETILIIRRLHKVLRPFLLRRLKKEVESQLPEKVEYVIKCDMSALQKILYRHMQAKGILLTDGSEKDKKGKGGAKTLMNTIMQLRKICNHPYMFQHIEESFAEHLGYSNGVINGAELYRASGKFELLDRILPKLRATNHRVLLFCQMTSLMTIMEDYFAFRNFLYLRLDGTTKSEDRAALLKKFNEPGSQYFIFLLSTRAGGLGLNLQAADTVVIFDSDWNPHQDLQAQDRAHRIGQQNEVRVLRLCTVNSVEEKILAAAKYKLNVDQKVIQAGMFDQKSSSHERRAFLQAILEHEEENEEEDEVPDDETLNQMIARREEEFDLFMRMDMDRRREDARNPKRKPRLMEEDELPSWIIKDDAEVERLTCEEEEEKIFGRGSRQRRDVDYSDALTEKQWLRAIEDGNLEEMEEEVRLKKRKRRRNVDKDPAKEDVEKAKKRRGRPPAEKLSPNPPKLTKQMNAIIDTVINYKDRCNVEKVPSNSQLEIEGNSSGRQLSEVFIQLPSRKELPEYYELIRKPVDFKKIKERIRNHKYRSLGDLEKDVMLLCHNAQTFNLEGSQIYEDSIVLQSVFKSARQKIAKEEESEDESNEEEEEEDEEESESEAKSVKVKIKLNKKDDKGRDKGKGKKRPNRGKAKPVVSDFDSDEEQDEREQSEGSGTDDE

Variant | effect of a mutation on the interaction
R3L | decreasing interaction
